We go through one molecule from patent publication US20220034883A1 (SYSMEX, published 2022).

The target of this assay is T1, His-tagged recombinant N protein of SARS-CoV (SARS-CoV, UniProt P59595 1-422).
T1 construct: mature
The assay is described as follows: ELISA screening of hybridomas.

T1 sequence (P59595 1-422, tags left off): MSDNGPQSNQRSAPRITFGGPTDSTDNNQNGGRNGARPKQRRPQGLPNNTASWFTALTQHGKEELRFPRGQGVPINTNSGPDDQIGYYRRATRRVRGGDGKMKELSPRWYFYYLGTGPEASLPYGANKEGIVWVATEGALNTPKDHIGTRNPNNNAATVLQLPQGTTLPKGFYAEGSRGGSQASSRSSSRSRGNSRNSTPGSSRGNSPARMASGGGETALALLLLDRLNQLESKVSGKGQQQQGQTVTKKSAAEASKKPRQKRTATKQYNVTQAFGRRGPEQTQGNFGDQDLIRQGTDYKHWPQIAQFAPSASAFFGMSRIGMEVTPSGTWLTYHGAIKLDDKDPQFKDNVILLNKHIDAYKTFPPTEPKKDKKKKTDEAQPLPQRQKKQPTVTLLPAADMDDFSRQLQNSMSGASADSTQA

B1: first antibody (monoclonal antibody purified from the culture supernatant of the hybridoma of Clone 1) (antibody, V domains shown)
VH: QVTLKESGPGILQPSQTLSLTCSFSGFSLSTSGTGVSWIRQPSGKGLEWLAHIYWDDDKRYNPSLKSRLTVSKDTSGNQVFLKITSVDTADTATYYCARSNYGYDLDYWGQGTTLTVSS
VL: DIVMTQSQKFMSTSVGDRVSVTCKASQNVGTNVVWYQQKPGQSPKALIYSASYRYSGVPDRFTGSGSGTDFTLTISNVQSEDLAEYFCQQYNNYPLTFGSGTKLEIKR
notes: also called capture antibody
With B1, the binding result was “binds”.
